A short description of this series: soluble on expression in E. coli; label from the status in PepcDB or PDB records.
On to “SSFQTSLPRLPVPAVKDTVNRYLQSVRPLMKEEDFKRMTALAQDFAVGLGPRLQWYLKLKSWWATNYVSDWWEEYIYLRGRGPLMVNSNYYAMDLLYILPTHIQAARAGNAIHAILLYRRKLDREEIKPIRLLGSTIPLCSAQWERMFNTSRIPGEETDTIQHMRDSKHIVVYHRGRYFKVWLYHDGRLLKPREMEQQMQRILDNTSEPQPGEARLAALTAGDRVPWARCRQAYFGRGKNKQSLDAVEKAAFFVTLDETEEGYRSEDPDTSMDSYAKSLLHGRCYDRWFDKSFTFVVFKNGKMGLNAEHSWADAPIVAHLWEYVMSIDSLQLGYAEDGHCKGDINPNIPYPTRLQWDIPGECQEVIETSLNTANLLANDVDFHSFPFVAFGKGIIKKCRTSPDAFVQLALQLAHYKDMGKFCLTYEASMTRLFREGRTETVRSCTTESCDFVRAMVDPAQTVEQRLKLFKLASEKHQHMYRLAMTGSGIDRHLFCLYVVSKYLAVESPFLKEVLSEPWRLSTSQTPQQQVELFDLENNPEYVSSGGGFGPVADDGYGVSYILVGENLINFHISSKFSCPETDSHRFGRHLKEAMTDIITLFGLSSNSKK”, for which the “soluble on expression in E. coli” value is “soluble”.
In the case of “SSGLSESKQTHVHLRNVDAATLQIIITYAYTGNLAMNDSTVEQLYETACFLQVEDVLQRCREYLIKKINAENCVRLLSFADLFSCEELKQSAKRMVEHKFTAVYHQDAFMQLSHDLLIDILSSDNLNVEKEETVREAAMLWLEYNTESRSQYLSSVLSQIRIDALSEVTQRAWFQGLPPNDKSVVVQGLYKSMPKFFKPRLGMTKEEMMIFIEASSENPCSLYSSVCYSPQAEKVYKLCSPPADLHKVGTRCNS”, the “soluble on expression in E. coli” value is recorded as “soluble”.
Turning to “SSIEFLAVEKQKIIAKETLELYAKIAGRIGMYPVKTQLADLSFKVLDPKNFNNTLSKINQQKVFYDNEWGNFKKQLEEMLEQNQIEYRLE”, the “soluble on expression in E. coli” value is “not soluble”.
Regarding “SSSGLNSEKVAALIQKLNSDPQFVLAQNVGTTHDLLDICLKRATVQRAQHVFQHAVPQEGKPITNQKSSGRCWIFSCLNVMRLPFMKKLNIEEFEFSQSYLFFWDKVERCYFFLSAFVDTAQRKEPEDGRLVQFLLMNPANDGGQWDMLVNIVEKYGVIPKKCFPESYTTEATRRMNDILNHKMREFCIRLRNLVHSGATKGEISATQDVMMEEIFRVVCICLGNPPETFTWEYRDKDKNYQKIGPITPLEFYREHVKPLFNMEDKICLVNDPRPQHKHNKLYTVEYLSNMVGGRKTLYNNQPIDFLKKMVAASIKDGEAVWFGCDVGKHFNSKLGLSDMNLYDHELVFGVSLKNMNKAERLTFGESLMTHAMTFTAVSEKDDQDGAFTKWRVENSWGEDHGHKGYLCMTDEWFSEYVYEVVVDRKHVPEEVLAVLEQEPIILPAWDPMGALA”, the “soluble on expression in E. coli” value was “soluble”.
The same measure for “SSTDQGTNPADTDDLTPTTLSLAGDFPKATEEQWEREVEKVLNRGRPPEKQLTFAECLKRLTVHTVDGIDIVPMYRPKDAPKKLGYPGVAPFTRGTTVRNGDMDAWDVRALHEDPDEKFTRKAILEGLERGVTSLLLRVDPDAIAPEHLDEVLSDVLLEMTKVEVFSRYDQGAAAEALVSVYERSDKPAKDLALNLGLDPIGFAALQGTEPDLTVLGDWVRRLAKFSPDSRAVTIDANIYHNAGAGDVAELAWALATGAEYVRALVEQGFTATEAFDTINFRVTATHDQFLTIARLRALREAWARIGEVFGVDEDKRGARQNAITSWRELTREDPYVNILRGSIATFSASVGGAESITTLPFTQALGLPEDDFPLRIARNTGIVLAEEVNIGRVNDPAGGSYYVESLTRSLADAAWKEFQEVEKLGGMSKAVMTEHVTKVLDACNAERAKRLANRKQPITAVSEFPMIGARSIETKPFPAAPARKGLAWHRDSEVFEQLMDRSTSVSERPKVFLACLGTRRDFGGREGFSSPVWHIAGIDTPQVEGGTTAEIVEAFKKSGAQVADLCSSAKVYAQQGLEVAKALKAAGAKALYLSGAFKEFGDDAAEAEKLIDGRLFMGMDVVDTLSSTLDILGVAK”: “soluble”; for “SSWKPRSQQPDAPLGTGANRDLELPWLEQQGPASHHRRQLGPQGPPHLVADPSKKQGPWLEEEEEAYGWMDFGRRSAEDEN”: “soluble”.
The same measure for “STNPKPQRKTKRNTNRRPQDVKFPGGGQIVGGVYLLPRRGPRLG”: “soluble”; for “STPGPGASAPNSPMALLTLNCEKEMDDVIEDIISLESSYSDDILGFMDAGLQMTNTIPVSANLLDMYSNHALPPAGVSISNSCPSSLPAVKRELSVTPSPGMMHIMDKAGPCGKFDSYQRPDGFPVEVRALAKERQKKDNHNLIERRRRFNINDRIKELGTLIPKSNDPDMRWNKGTILKASVDYIRKLQKEQQNAKELENRQKRLEHANRHLLLRIQELEMQARAHGLTVVASSSLYSAELVARAIKQEPGMGDCTSNLYPHLPSPDMSRPTTLDLNNGTISYNDSPTEDGEPGVYDSPNKASTKLEDMLMDNTLSPVGSSDPLLSSGSPVPSNSSGSSSMDEHDNGC”: “not soluble”; for “STTALCRMNMILHNSATADIAKGGSSTLSNPLFTTENGMLKTFDYVVANPPFS”: “not soluble”.
Next, “STTGIIMENVTAFWEEGFGELLEKVQQSNGDRKHSSDENNVSFSHLCLVGNPVLKNINLNIEKGEMLAITGSTGSGKTSLLMLILGELEASEGIIKHSGRVSFCSQFSWIMPGTIKENIIFGVSYDEYRYKSVVKACQLQQDITKFAEQDNTVLGEGGVTLSGGQRARISLARAVYKDADLYLLDSPFGYLDVFTEEQVFESCVCKLMANKTRILVTSKMEHLRKADKILILHQGSSYFYGTFSELQSLRPDFSSKLMGYDTFDQFTEERRSSILTETLRRFSVDDSSAPWSKPKQSFRQTGEVGEKRKNSILNSFSSVRKISIVQKTPLCIDGESDDLQEKRLSLVPDSEQGEAALPRSNMIATGPTFPGRRRQSVLDLMTFTPNSGSSNLQRTRTSIRKISLVPQISLNEVDVYSRRLSQDSTLNITEEINEEDLKECFLDDVIKIPPVTTWNTYLRYFTLHKG”: “soluble”.
Regarding “SVEVITHPGVNSNYLSKNLLRSIFGMRLRTWQDGLPVRVFVLPDDAPLHSTFTKQKLNIFPYQLRSAWDRMVYSGTGQAPFVVHTEEEMRARIASTPGAIGYLSGSMINDSVQVVHID”, the “soluble on expression in E. coli” value is listed as “not soluble”.
The same measure for “SVFPQQTGQLAELQPQDRAGARASWMPMFQRRRRRDTHFPICIFCCGCCHRSKCGMCCKT”: “not soluble”; for SVSEIQLMHNLGKHLNSMERVEWLRKKLQDVHNF: “soluble”.
Next, “SVSGLAILYLRRRRAPLARLRQAIQRCEFFVCYQPIVSLSDGRCVGAEALVRWRQQDGTLILPDQFIPLAERSGLILPITDQVIAASMRELGPLLVADRSLHIAINVSVKDIESGRLLDVLALALQDTGLYRKQLWIEATERSFMDARAAREHIVRLREAGYAVVIDDFGTGYSNLQYLQQLPLDALKIDKSFIDTVGRDVTNTAVASHIIDIAKELGMRTIAEGVEREEQLVYLRARGVDMAQGWLFSSP”: “not soluble”; “SYMYDRDGSLVSEIVSDHENRVLVPFNKIPEEVKQIFLTSEDRHFYEHKGFDFMGMVPPTASNVKDKKIDQGASTITQQLSRNLYLSHERSFSRKLTELAYSYQLEKKYTKNEILEAYLNTIYFNNGVYGVGSAAQFYFSKPLKSLTVGEMAFICAIPNNPTLYDPLKHF”: “not soluble”; “SYSYVYIYMPTWREDKRNILEIIDFDRLNQLCIKNNNLFLFRLHPNTEINLDMLVSYSNLRIIDSSCDIYPILPFTDVLITDYSSIYYDYMLIPNKQILLFPFDEEEYCTFNRDLAFDYKIYTPGIRIYSFEALLEIVESKKNLNIKEIKVIKKLFWKGRNESIIDRIIN”: “not soluble”.
As for “TDAPANQGFIIGVTGCPAGVAHTYLAAEALEKGAAAMGYEIKVETNGSIGVKNSPTAEEIERADAIIVACDKQVDMNRFAGKRVVKTNVKAPIRDAQGLINEALNAPTY”, the “soluble on expression in E. coli” value was “not soluble”.
The same measure for “TDIAGLTIEHVTGDYLNGFRIIPDNIKYKGVIVTFGGSDGTPAYEQAVQLAQEGYQVLALFFFGMPNQHPTLAEVPVEYYQEIESYISQHFSQPDKITVIGTSKGAEYALLLASLYDSIDNVVLYAPSSHIYAGLDFRNYSSSWSQNGKALPYLDVRSENSLKLFYNFLIKTPISYYHTYKQALDKDKNSEDKRIKVEKTKANILIFAGENDRMWPSAESARLIEKYQPNHTQVTIYKEAGHLFAGDGI”: “not soluble”; for “TDLSAQKRLAADVLDVGKNRVWFNPERQGDIADAITREDVRELVDEGAIQAKDKKGNSRGRARERQKKRAKGHQKGAGSRKGKAGARQNSKEDWESRIRAQRTKLRELRDEGTLSSSQYRDLYDKAGGGEFDSVADLERYIDANHGDA”: “soluble”.
The same measure for “TEFGSELKSFPEVVGKTVDQAREYFTLHYPQYNVYFLPEGSPVTRDLRYNRVRVFYNPGTNVVNHVPHVG”: “soluble”.
The same measure for “TELTLKPGTLTLAQLRAIHAAPVRLQLDASAAPAIDASVACVEQIIAEDRTAYGINTGFGLLASTRIASHDLENLQRSLVLSHAAGIGAPLDDDLVRLIMVLKINSLSRGFSGIRRKVIDALIALVNAEVYPHIPLKGSVGASGDLAPLAHMSLVLLGEGKARYKGQWLSATEALAVAGLEPLTLAAKEGLALLNGTQASTAYALRGLFYAEDLYAAAIACGGLSVEAVLGSRSPFDARIHEARGQRGQIDTAACFRDLLGDSSEVSLSHKNADKVQDPYSLRCQPQVMGACLTQLRQAAEVLGIEANAVSDNPLVFAAEGDVISGGNFHAEPVAMAADNLALAIAEIGSLSERRISLMMDKHMSQLPPFLVENGGVNSGFMIAQVTAAALASENKALSHPHSVDSLPTSANQEDHVSMAPAAGKRLWEMAENTRGVLAIEWLGACQGLDLRKGLKTSAKLEKARQALRSEVAHYDRDRFFAPDIEKAVELLAKGSLTGLLPAGVLPSL”: “soluble”.
“TEPTIHKGLAGVTADVTAISKVNSDTNSLLYRGYPVQELAAKCSFEQVAYLLWNSELPNDSELKAFVNFERSHRKLDENVKGAIDLLSTACHPMDVARTAVSVLGANHARAQDSSPEANLEKAMSLLATFPSVVAYDQRRRRGEELIEPREDLDYSANFLWMTFGEEAAPEVVEAFNVSMILYAEHSFNASTFTARVITSTLADLHSAVTGAIGALKGPLHGGANEAVMHTFEEIGIRKDESLDEAATRSKAWMVDALAQKKKVMGFGHRVYKNGDSRVPTMKSALDAMIKHYDRPEMLGLYNGLEAAMEEAKQIKPNLDYPAGPTYNLMGFDTEMFTPLFIAARITGWTAHIMEQVADNALIRPLSEYNGPEQRQVP”: the “soluble on expression in E. coli” value is reported as “soluble”.
With “TETRLLQARVSDLQRLSSLGRMVASLAHQVRTPLSSAMLYASNLGAPNLPPATRERFQSKLMDRLHDLEKQVNDMLLFAKGGDNKVIKPFTIAQLVAEYQPMVETALKNNNIDYFLEVEEEQTE”, the “soluble on expression in E. coli” value is “not soluble”.
Next, “TFGKDNIKSKVILFSIEKPSKEVAEKLEMQDDYIYRIIRMREVGHKAYSIEHTYMPLAIIPGLEPHHLEDSIYNYIRDDLKLKMQSAHVWVRGDKSNQEDSKLLDLEEPTFMMEIEKLAHLEDGRVFEYSITRHTYESFV”: “not soluble”.

For the origin of these results see the DeepSol protein solubility set.
